The values that follow come from IntAct's records for PubMed 31515488.

Some targets named below: fxl18_human FBXL18 (UniProt Q96ME1); hnrl1_human HNRNPUL1 (UniProt Q9BUJ2); erep1_human ENTREP1 (UniProt Q15884); pdli7_human PDLIM7 (UniProt Q9NR12); cof2_human CFL2 (UniProt Q9Y281); ntaq1_human NTAQ1 (UniProt Q96HA8); fund1_human FUNDC1 (UniProt Q8IVP5); otx1_human OTX1 (UniProt P32242); aapk1_human PRKAA1 (UniProt Q13131); hxb5_human HOXB5 (UniProt P09067); ctbp2_human CTBP2 (UniProt P56545); lnx1_human LNX1 (UniProt Q8TBB1); ck068_human C11orf68 (UniProt Q9H3H3); aakb2_human PRKAB2 (UniProt O43741); zbt24_human ZBTB24 (UniProt O43167); mtus2_human MTUS2 (UniProt Q5JR59); cep70_human CEP70 (UniProt Q8NHQ1); dpyl3_human DPYSL3 (UniProt Q14195); gors2_human GORASP2 (UniProt Q9H8Y8); kcc2d_human CAMK2D (UniProt Q13557); thap1_human THAP1 (UniProt Q9NVV9); rbtn2_human LMO2 (UniProt P25791); dzip3_human DZIP3 (UniProt Q86Y13).

A further assay concerns the target T1, cxcl9_human CXCL9 (UniProt Q07325).
T1 sequence: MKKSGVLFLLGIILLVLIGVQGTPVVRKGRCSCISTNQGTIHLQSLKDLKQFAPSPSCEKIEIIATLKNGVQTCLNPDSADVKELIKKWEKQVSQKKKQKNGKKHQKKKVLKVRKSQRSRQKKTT

A further assay has as its target T2, tmm79_human TMEM79 (UniProt Q9BSE2).
T2 sequence: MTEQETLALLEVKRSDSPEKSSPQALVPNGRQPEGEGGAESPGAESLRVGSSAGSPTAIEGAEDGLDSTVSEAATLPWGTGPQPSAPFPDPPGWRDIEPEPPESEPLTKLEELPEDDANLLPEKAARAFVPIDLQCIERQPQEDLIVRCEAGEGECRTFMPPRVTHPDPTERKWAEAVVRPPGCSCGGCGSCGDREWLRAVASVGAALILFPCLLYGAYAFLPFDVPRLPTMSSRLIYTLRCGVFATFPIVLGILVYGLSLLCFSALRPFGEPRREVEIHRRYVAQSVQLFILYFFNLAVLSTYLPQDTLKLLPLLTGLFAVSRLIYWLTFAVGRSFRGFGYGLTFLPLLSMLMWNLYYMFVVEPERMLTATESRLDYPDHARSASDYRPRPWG

In another assay the target is T3, dest_human DSTN (UniProt P60981).
T3 sequence: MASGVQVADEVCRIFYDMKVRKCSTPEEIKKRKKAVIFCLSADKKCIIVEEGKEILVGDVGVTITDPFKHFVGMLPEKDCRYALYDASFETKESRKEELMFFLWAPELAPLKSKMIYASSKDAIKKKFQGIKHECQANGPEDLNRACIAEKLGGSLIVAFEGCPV

In the next assay the target is T4, cry2_human CRY2 (UniProt Q49AN0).
T4 sequence: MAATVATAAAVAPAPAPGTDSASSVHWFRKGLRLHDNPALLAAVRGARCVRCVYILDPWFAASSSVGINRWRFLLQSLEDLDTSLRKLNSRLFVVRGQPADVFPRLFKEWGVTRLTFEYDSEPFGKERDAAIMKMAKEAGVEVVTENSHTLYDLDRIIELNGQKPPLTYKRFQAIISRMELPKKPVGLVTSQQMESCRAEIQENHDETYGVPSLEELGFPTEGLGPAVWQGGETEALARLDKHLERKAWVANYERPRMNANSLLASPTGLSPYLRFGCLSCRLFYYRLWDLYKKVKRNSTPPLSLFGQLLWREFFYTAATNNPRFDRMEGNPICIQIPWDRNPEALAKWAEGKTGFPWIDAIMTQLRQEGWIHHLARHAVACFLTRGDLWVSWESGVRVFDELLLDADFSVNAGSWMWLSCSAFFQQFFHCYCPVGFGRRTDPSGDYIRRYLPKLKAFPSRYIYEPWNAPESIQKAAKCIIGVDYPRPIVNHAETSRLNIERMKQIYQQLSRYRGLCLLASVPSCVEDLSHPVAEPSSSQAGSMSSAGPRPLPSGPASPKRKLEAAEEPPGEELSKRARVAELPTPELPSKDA

Another assay addresses T5, traf4_human TRAF4 (UniProt Q9BUZ4).
T5 sequence: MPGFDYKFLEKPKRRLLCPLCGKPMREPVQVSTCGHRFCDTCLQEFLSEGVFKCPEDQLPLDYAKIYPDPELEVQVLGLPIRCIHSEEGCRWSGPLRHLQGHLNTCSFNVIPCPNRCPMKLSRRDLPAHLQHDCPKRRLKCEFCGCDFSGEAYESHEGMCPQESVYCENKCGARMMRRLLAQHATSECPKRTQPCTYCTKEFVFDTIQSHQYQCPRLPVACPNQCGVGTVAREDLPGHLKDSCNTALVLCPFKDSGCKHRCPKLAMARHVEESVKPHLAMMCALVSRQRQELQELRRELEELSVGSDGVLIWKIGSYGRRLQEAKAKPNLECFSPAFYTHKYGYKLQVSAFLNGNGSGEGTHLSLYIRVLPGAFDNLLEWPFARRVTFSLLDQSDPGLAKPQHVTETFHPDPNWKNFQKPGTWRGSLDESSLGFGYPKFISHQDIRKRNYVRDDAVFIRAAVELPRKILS

Assay [1] addresses trim1_human MID2 (UniProt Q9UJV3).
Another assay concerns the target T6, zbt14_human ZBTB14 (UniProt O43829).
T6 sequence: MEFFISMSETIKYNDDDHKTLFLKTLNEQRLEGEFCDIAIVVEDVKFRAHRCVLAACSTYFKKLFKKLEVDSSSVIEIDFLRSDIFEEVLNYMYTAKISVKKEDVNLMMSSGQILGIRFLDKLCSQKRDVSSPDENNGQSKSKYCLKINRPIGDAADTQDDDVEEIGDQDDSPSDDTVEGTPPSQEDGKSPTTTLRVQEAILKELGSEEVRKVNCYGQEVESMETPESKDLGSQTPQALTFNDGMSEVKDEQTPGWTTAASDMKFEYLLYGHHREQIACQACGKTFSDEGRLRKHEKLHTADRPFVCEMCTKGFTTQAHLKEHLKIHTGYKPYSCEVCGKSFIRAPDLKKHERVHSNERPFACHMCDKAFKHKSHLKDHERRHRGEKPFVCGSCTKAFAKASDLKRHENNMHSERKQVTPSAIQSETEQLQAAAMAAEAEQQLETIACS

The target in a further assay is T7, dpyl5_human DPYSL5 (UniProt Q9BPU6).
T7 sequence: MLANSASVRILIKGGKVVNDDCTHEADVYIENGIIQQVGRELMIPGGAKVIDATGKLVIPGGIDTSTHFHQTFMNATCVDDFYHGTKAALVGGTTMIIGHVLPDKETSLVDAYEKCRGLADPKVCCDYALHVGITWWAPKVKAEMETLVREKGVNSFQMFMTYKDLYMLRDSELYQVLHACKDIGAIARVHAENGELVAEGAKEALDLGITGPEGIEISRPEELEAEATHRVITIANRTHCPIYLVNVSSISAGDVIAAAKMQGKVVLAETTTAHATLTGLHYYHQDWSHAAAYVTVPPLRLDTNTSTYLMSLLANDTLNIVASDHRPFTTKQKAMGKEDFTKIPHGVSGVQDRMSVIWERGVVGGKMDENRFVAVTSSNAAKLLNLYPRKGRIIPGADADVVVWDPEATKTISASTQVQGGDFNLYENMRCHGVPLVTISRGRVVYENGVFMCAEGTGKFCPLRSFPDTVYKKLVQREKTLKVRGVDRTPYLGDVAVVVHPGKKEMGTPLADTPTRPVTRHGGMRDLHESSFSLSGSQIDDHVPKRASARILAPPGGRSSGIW

In assay [2] the target is zn446_human ZNF446 (UniProt Q9NWS9).
The target is the same in assay [3]. This is another data set of the same source.
Assay [4] deals with trim1_human MID2 (UniProt Q9UJV3). The source holds these as a separate data set.
The target in assay [5] is zn446_human ZNF446 (UniProt Q9NWS9). The source holds these as a separate data set.

Sequence of Zinc finger protein 24 (Homo sapiens), P17028 T85M (P17028 whole entry T85M): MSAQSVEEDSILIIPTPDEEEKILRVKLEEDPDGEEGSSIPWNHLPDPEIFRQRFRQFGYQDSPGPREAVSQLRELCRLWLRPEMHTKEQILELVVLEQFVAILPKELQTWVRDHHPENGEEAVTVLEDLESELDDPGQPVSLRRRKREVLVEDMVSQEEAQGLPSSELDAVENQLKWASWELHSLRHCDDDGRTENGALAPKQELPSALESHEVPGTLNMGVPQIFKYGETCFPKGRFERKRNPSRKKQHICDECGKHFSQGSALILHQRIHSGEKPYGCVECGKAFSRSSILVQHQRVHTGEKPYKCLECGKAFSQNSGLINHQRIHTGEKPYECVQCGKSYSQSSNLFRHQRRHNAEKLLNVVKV
Sequence of zn446_human ZNF446 (Q9NWS9 whole entry): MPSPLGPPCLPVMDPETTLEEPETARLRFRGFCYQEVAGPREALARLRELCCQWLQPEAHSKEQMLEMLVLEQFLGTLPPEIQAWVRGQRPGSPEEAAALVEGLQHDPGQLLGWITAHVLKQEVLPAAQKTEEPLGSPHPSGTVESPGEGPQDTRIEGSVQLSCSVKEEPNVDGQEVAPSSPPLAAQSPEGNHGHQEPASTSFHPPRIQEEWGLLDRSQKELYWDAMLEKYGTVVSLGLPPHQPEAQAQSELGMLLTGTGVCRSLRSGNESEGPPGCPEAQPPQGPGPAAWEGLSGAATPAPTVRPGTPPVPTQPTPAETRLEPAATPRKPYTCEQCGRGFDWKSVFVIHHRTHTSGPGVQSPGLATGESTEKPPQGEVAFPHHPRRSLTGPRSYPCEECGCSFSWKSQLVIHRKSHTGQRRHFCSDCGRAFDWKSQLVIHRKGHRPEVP
Sequence of Zinc finger protein 785 (Homo sapiens), A8K8V0 R212C (A8K8V0 whole entry R212C): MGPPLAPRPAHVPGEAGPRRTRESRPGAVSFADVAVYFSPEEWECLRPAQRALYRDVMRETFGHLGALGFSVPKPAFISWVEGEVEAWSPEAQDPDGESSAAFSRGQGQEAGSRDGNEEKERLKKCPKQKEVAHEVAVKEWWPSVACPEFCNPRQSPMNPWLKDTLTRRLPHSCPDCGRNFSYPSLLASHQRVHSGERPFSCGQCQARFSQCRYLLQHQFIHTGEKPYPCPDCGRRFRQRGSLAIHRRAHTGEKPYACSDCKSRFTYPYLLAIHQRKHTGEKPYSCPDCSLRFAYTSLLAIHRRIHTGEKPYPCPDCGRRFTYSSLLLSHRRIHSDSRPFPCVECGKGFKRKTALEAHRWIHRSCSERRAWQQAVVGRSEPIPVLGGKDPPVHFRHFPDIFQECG
Sequence of trim1_human MID2 (Q9UJV3 whole entry): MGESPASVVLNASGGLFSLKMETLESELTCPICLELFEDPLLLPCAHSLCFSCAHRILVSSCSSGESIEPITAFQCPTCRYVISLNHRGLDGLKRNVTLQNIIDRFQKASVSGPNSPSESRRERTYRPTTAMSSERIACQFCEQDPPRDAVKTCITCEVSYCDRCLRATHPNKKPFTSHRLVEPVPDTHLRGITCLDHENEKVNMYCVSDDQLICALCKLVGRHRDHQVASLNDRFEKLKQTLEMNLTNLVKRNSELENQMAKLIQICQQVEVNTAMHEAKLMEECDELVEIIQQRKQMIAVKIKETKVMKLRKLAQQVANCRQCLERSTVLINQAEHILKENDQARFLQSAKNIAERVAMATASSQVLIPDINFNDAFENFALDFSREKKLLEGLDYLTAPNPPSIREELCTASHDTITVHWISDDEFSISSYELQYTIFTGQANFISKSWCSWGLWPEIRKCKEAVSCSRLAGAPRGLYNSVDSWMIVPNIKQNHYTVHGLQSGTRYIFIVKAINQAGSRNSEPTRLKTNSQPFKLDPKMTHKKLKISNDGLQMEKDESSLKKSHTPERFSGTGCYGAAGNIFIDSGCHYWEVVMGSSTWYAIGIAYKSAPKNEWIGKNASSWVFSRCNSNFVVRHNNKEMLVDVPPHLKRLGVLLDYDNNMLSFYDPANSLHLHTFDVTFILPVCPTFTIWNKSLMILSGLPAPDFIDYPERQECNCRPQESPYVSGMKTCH
Sequence of Zinc finger and SCAN domain-containing protein 16 (Homo sapiens), Q9H4T2 R137Q (Q9H4T2 whole entry R137Q, the tested form may be a part): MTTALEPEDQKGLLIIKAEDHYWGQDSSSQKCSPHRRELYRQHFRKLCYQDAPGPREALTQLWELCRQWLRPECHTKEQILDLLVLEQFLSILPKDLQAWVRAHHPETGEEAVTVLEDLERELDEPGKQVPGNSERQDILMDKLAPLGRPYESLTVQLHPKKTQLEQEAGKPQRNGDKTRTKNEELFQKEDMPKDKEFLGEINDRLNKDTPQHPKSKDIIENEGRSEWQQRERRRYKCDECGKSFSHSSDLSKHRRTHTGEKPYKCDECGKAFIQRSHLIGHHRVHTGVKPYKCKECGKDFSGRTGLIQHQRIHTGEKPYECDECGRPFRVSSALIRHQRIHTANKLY
Sequence of ck068_human C11orf68 (Q9H3H3 whole entry): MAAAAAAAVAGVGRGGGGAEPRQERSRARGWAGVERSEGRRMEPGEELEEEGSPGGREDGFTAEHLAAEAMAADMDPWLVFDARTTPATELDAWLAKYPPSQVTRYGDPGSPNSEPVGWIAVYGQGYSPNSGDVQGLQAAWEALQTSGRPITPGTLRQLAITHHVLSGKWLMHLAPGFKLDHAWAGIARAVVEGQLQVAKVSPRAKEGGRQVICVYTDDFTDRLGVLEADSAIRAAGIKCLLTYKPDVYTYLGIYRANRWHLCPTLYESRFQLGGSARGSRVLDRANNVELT
Sequence of lnx1_human LNX1 (Q8TBB1 whole entry): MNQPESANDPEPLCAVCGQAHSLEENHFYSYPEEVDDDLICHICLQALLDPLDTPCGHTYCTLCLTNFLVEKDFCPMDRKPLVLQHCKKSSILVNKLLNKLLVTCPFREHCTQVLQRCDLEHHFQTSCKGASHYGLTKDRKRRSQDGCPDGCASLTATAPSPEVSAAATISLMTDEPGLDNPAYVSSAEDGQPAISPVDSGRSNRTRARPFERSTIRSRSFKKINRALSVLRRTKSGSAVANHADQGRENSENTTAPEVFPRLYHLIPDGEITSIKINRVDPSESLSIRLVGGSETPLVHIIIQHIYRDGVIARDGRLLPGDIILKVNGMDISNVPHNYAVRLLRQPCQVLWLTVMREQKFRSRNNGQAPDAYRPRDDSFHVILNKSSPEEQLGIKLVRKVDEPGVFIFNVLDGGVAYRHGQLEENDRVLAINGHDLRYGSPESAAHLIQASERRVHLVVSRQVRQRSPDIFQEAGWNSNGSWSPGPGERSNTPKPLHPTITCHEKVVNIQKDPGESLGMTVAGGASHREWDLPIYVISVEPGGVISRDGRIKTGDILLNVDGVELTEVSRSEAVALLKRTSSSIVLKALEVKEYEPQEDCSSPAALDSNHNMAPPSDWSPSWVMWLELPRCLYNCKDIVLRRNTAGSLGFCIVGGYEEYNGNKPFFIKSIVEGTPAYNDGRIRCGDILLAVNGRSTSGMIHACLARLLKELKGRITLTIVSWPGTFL
Sequence of Zinc finger protein 302 (Homo sapiens), Q9NR11 R391H (Q9NR11 whole entry R391H): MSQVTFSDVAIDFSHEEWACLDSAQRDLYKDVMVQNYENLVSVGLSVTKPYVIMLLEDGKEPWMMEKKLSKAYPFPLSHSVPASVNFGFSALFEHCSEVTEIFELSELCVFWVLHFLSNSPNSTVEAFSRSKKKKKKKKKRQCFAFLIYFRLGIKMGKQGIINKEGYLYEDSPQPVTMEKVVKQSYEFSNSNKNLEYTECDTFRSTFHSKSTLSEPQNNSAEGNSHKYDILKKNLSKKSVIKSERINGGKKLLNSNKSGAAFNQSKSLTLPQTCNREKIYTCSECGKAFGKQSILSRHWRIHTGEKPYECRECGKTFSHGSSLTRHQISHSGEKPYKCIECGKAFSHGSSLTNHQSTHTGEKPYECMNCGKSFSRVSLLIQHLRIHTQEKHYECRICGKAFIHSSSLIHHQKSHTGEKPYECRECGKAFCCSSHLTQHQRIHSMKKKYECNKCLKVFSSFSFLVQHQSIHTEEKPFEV
Sequence of rbtn2_human LMO2 (P25791 whole entry): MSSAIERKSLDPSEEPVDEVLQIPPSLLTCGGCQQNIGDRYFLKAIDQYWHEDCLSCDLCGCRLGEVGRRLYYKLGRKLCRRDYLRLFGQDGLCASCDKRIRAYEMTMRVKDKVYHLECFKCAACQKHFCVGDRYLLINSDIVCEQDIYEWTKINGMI
Sequence of dpyl3_human DPYSL3 (Q14195 whole entry): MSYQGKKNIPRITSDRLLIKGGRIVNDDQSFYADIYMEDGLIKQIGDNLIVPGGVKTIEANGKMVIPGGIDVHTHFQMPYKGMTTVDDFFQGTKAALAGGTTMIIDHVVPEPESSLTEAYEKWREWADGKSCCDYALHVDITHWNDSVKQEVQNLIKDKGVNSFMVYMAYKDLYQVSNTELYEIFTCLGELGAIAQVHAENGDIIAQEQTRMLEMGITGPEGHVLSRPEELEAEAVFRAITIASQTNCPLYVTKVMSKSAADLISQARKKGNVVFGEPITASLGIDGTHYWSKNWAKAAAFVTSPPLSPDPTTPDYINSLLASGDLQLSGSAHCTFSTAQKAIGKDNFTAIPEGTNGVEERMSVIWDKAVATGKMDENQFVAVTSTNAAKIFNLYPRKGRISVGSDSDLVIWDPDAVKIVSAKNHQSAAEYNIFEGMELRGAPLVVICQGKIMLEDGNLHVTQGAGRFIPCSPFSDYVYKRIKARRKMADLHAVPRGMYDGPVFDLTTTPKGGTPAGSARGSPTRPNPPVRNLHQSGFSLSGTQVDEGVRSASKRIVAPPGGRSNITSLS
Sequence of fund1_human FUNDC1 (Q8IVP5 whole entry): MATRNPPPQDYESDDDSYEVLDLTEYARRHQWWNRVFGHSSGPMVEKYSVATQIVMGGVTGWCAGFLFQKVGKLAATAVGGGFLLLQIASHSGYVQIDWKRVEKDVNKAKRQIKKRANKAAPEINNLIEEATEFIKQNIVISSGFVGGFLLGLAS
Sequence of thap1_human THAP1 (Q9NVV9 whole entry): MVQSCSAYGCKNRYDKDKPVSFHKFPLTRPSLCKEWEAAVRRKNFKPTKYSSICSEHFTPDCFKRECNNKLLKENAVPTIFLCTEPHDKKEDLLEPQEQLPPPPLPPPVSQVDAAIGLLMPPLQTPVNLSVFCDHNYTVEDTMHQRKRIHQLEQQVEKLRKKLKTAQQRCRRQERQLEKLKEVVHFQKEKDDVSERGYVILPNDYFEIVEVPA

With “Surfactant protein C (Homo sapiens) (from UniProt P11686) R167Q”, the “effect of a mutation on the interaction” value with cxcl9_human CXCL9 and with tmm79_human TMEM79 was “with no effect” throughout.

For “Isoform 1 of NEDD4-like E3 ubiquitin-protein ligase WWP2 (Homo sapiens), O00308-1 V717M”, the “effect of a mutation on the interaction” value with fxl18_human FBXL18, in the assay with hnrl1_human HNRNPUL1, with erep1_human ENTREP1 and in the assay with pdli7_human PDLIM7 was “with no effect” each time.

Regarding “Actin, cytoplasmic 1 (Homo sapiens) (from UniProt P60709) E364K”, the results for the “effect of a mutation on the interaction” value with dest_human DSTN, in the assay with cof2_human CFL2 and with ntaq1_human NTAQ1 were “disrupting interaction strength”, “with no effect” and “disrupting interaction strength”, respectively.

In the case of “Tyrosine-protein kinase Yes (Homo sapiens), P07947 V52L”, the “effect of a mutation on the interaction” value with fund1_human FUNDC1 is reported as “with no effect”.

For the substance “Cartilage oligomeric matrix protein (Homo sapiens), P49747 N386D”, the “effect of a mutation on the interaction” value with otx1_human OTX1 is “with no effect”.

Regarding “C-terminal-binding protein 1 (Homo sapiens) (from UniProt Q13363) A436T”, the “effect of a mutation on the interaction” value with cry2_human CRY2, with aapk1_human PRKAA1, with hxb5_human HOXB5 and with ctbp2_human CTBP2 was “with no effect” in each case.

As for “Large ribosomal subunit protein bL28m (Homo sapiens) (from UniProt Q13084) D160E”, the “effect of a mutation on the interaction” value with traf4_human TRAF4 is “with no effect”.

Take “Eukaryotic translation initiation factor 4H (Homo sapiens), Q15056 G164V”: the “effect of a mutation on the interaction” value with lnx1_human LNX1 and in the assay with ck068_human C11orf68 was “with no effect” throughout.

For the substance “Krueppel-like factor 15 (Homo sapiens), Q9UIH9 A199V”, the “effect of a mutation on the interaction” value with aakb2_human PRKAB2 and with zbt24_human ZBTB24 was “with no effect” throughout.

“Zinc finger protein 785 (Homo sapiens), A8K8V0 R212C”: the “effect of a mutation on the interaction” value with trim1_human MID2 [1] and with mtus2_human MTUS2 was “with no effect” throughout.

In the case of “Small ribosomal subunit protein eS7 (Homo sapiens) (from UniProt P62081) R106Q”, in the assay with zbt14_human ZBTB14, the “effect of a mutation on the interaction” value is recorded as “with no effect”.

On to “Zinc finger protein 302 (Homo sapiens), Q9NR11 R391H”, for which the “effect of a mutation on the interaction” value in the assay with cep70_human CEP70 is listed as “with no effect”.

“Dihydropyrimidinase-related protein 2 (Homo sapiens) (from UniProt Q16555) A267S”: the “effect of a mutation on the interaction” value with dpyl3_human DPYSL3, in the assay with gors2_human GORASP2 and in the assay with dpyl5_human DPYSL5 was “with no effect” throughout.

“Large ribosomal subunit protein uL11m (Homo sapiens) (from UniProt Q9Y3B7) R142C”: the “effect of a mutation on the interaction” value with kcc2d_human CAMK2D and with thap1_human THAP1 was “with no effect” each time.

In the case of “Zinc finger and SCAN domain-containing protein 16 (Homo sapiens), Q9H4T2 R137Q”, in the assay with zn446_human ZNF446 [2], the “effect of a mutation on the interaction” value was “with no effect”.

As to “Zinc finger protein 397 (Homo sapiens), Q8NF99 P169S”, the “effect of a mutation on the interaction” value in the assay with zn446_human ZNF446 [3] is recorded as “with no effect”.

As for “Zinc finger protein 24 (Homo sapiens), P17028 T85M”, the “effect of a mutation on the interaction” value with trim1_human MID2 [4], with zn446_human ZNF446 [5], with rbtn2_human LMO2 and with dzip3_human DZIP3 was “with no effect” each time.
